Experimental data taken from US20030073629.
Changes are numbered by the printed parent chain. Names may count otherwise.

B1: C-terminal His6-tagged recombinant wild type mature Omi (Omi lacking the first 133 residues) (protein)
chain: AVPSPPPASPRSQYNFIADVVEKTAPAVVYIEILDRHPFLGREVPISNGSGFVVAADGLIVTNAHVVADRRRVRVRLLSGDTYEAVVTAVDPVADIATLRIQTKEPLPTLPLGRSADVRQGEFVVAMGSPFALQNTITSGIVSSAQRPARDLGLPQTNVEYIQTDAAIDFGNSGGPLVNLDGEVIGVNTMKVTAGISFAIPSDRLREFLHRGEKKNSSSGISGSQRRYIGVMMLTLSPSILAELQLREPSFPDVQHGVLIHKVILGSPAHRAGLRPGDVILAIGEQMVQNAEDVYEAVRTQSQLAVQIRRGRETLTLYVTPEVTEHHHHHH
B2: Omi-S306A (C-terminal His6-tagged recombinant mature Omi, active site Ser306 to Ala) (protein)
chain: B1 chain with S173A
B3: Omi-deltaAVPS (C-terminal His6-tagged recombinant mature Omi with the AVPS motif deleted) (protein)
chain: PPPASPRSQYNFIADVVEKTAPAVVYIEILDRHPFLGREVPISNGSGFVVAADGLIVTNAHVVADRRRVRVRLLSGDTYEAVVTAVDPVADIATLRIQTKEPLPTLPLGRSADVRQGEFVVAMGSPFALQNTITSGIVSSAQRPARDLGLPQTNVEYIQTDAAIDFGNSGGPLVNLDGEVIGVNTMKVTAGISFAIPSDRLREFLHRGEKKNSSSGISGSQRRYIGVMMLTLSPSILAELQLREPSFPDVQHGVLIHKVILGSPAHRAGLRPGDVILAIGEQMVQNAEDVYEAVRTQSQLAVQIRRGRETLTLYVTPEVTEHHHHHH

Molecular target: XIAP, P98170
Sequence (P98170 whole entry): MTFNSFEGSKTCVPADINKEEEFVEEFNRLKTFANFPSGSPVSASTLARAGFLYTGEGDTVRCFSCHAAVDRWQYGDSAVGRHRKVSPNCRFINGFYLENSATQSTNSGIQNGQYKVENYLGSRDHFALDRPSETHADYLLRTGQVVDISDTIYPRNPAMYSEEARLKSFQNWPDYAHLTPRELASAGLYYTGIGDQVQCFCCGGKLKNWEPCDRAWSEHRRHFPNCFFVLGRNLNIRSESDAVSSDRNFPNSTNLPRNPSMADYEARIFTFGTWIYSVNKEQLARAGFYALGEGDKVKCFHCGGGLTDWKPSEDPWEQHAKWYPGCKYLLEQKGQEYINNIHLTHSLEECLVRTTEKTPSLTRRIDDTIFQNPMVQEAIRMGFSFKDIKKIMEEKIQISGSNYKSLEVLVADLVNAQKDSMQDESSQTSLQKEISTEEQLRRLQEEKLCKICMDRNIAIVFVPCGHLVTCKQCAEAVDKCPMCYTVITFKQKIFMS

Question: How did the “procaspase-3 activation in XIAP-containing S100 extracts stimulated with cytochrome c and dATP” value (shortened to “procaspase-3 activation”) turn out when B1 was run?
Answer: Its value is “mature WT Omi or the S306A mutant were able to promote procaspase-3 activation in the XIAP-containing S100 extracts almost to the same extent as Smac”.

Question: B2 was tested. Which “procaspase-3 activation” value did it give?
Answer: Its value is “mature WT Omi or the S306A mutant were able to promote procaspase-3 activation in the XIAP-containing S100 extracts almost to the same extent as Smac”.

Question: How did the “procaspase-3 activation” value turn out when B3 was run?
Answer: The value was “deletion of this motif abolished its caspase-promoting activity”.
